Laboratory results: US20150079090A1 (JOSAI UNIVERSITY, published 2015)
Ends that are not written are not given here.

Biological target: T1, conjugate of a peptide consisting of an amino acid sequence represented by SEQ ID NO:1 (SSVLYGGPPSAA) and KLH (also: conjugated to KLH with glutaraldehyde, site and number per carrier not given here)
T1 construct: Synthetic peptide (Fmoc solid phase) cross-linked to KLH by glutaraldehyde; also called antigenic substance; antigen
T1 peptide: SSVLYGGPPSAA
Test: ELISA of hybridoma culture supernatant on plate coated with the peptide-KLH conjugate, fluorescence read-out
Experimental: A buffer solution containing the above-mentioned antigenic substance (5 mg) (Baicarbonate buffer: 100 mM NaHCO₃—NaOH, pH 9.2 to 9.5, the concentration of the peptide: 1 μg/mL) was added to a 96 well flat bottom plate in an amount of 50 μL per well, and allowed to stand for coating at room temperature for 2 hours. The plate was washed 3 times with wash buffer (PBST), and then blocking buffer (3% skim milk 1% BSA, PBS) was added in an amount of 200 to 250 μL/well to react at 4° C. for one full day, and then washed 3 times. Then the culture supernatant of hybridoma was added in an amount of 100 μL/well, which was allowed to react at 37° C. for 4 hours or at 4° C. for one full day. After the plate was washed 3 times, biotin-labeled anti-mouse IgG (SIGMA) diluted 10000 times with dilution buffer (10 mM Tris-HCl (pH 8.0), 0.9% (W/V) NaCl, 0.05% (W/V) Tween 20) was added in an amount of 50 μL/well, which was allowed to react at room temperature for 2 hours. […] Then washing was performed 6 times, and fluorescent substrate buffer (Attophos substrate buffer, Roche Diagnostics K.K.) was added in an amount of 50 μL/well, and the plate was shaded to allow fluorescence to develop. Fluorescence intensity was measured in CytoFluorII (PerSeptive Biosystems).

B1: monoclonal antibody (SSVmAb) of Example 1, produced by hybridoma Mouse-Mouse hybridoma SSV-C 93-3 (NITE BP-972) (antibody, IgG1, V domains shown)
VH: EIQLQQSGAELVKPGASVKISCKASGYSFTGYNMNWVKQSHGKSLEWIGNINPYYGSTSYNQKFKGKATLTVDKSSSTAYMQLNSLTSEDSAVYYCARSPYYSNYWRYFDYWGQGTTLTVSS
VL: QIVLSQSPAILSASPGEKVTMTCRASSSVSYMHWYQQKPGSSPKPWIYATSNLASGVPARFSGSGSGTSYSLTISRVEAEDAATYYCQQWSSNPWTFGGGTKLEIK
notes: Mouse hybridoma antibody
binding result: binds
